Measured values from paper PMC6748103, “SPOP suppresses prostate cancer through regulation of CYCLIN E1 stability” (Cell Death and Differentiation, 2018).

Target: T1, GST-CCNE1 (UniProt P24864 1-410)
T1 construct: CYCLIN E1 (CCNE1), expressed in bacteria; also called GST-tagged CCEN1; GST-tagged CYCLIN E1
Test: pull-down; GST pull-down; His-SPOP and GST-CCNE1 expressed in bacteria and affinity purified
Settings: both partners purified

T1 sequence (P24864 whole entry): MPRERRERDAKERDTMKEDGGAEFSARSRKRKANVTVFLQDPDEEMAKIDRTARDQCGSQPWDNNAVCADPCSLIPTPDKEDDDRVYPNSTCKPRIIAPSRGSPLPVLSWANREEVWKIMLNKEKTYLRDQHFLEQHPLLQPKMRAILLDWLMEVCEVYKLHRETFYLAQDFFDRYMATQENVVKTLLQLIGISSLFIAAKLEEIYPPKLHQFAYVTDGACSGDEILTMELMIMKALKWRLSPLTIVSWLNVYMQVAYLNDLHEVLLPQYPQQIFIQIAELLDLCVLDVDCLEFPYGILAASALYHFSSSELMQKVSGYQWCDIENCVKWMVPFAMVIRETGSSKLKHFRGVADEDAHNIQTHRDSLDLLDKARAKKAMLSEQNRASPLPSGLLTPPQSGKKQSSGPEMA

binding result: binds
B1: His-tagged SPOP (natural protein, UniProt O43791 1-374, looked up)
chain: MSRVPSPPPPAEMSSGPVAESWCYTQIKVVKFSYMWTINNFSFCREEMGEVIKSSTFSSGANDKLKWCLRVNPKGLDEESKDYLSLYLLLVSCPKSEVRAKFKFSILNAKGEETKAMESQRAYRFVQGKDWGFKKFIRRDFLLDEANGLLPDDKLTLFCEVSVVQDSVNISGQNTMNMVKVPECRLADELGGLWENSRFTDCCLCVAGQEFQAHKAILAARSPVFSAMFEHEMEESKKNRVEINDVEPEVFKEMMCFIYTGKAPNLDKMADDLLAAADKYALERLKVMCEDALCSNLSVENAAEILILADLHSADQLKTQAVDFINYHASDVLETSGWKSMVVSHPHLVAEAYRSLASAQCPFLGPPRKRLKQS
notes: SPOP, expressed in bacteria; also called His-SPOP
